{
  "source": "patent US20100221183A1",
  "about": "“PEPTIDES FOR TREATING AND DIAGNOSING CANCERS AND METHODS FOR USING THE SAME” (priority 2006, published 2010)",
  "molecules": {"B1": {"name": "synthetic epitope of Hsc71 (GIPPAPRGVPQIEVTF) (peptide)", "peptide": "Biotin-GIPPAPRGVPQIEVTF", "notes": "Amino acids 463-478 of Hsc71, synthesized with N-terminal biotin"}, "B2": {"name": "PanC (DYWDTSWPLLLFGGGC) (peptide)", "peptide": "DYWDTSWPLLLFGGGC", "modifications": "also: radiolabeled with 99mTc, site not given here, unlabeled form also used", "notes": "also called peptide PanC"}},
  "key": {"[1]": {"test_system": "NCI-H460 (lung cancer)", "test": "Cell internalization of fluorescein labeled peptide (fluorescent microscopy)", "type": "cell-based", "conditions": "25 μM peptide, one hour at 37C", "experimental": "(§1) […], DU-145, and CCD-1070Sk were grown in culture as detailed above. Cells were grown on coverslips in 6 well plates. A 25 μM solution of peptide […]-fluorescein (PanF; SEQ ID NO:12) was prepared in modified Eagle's medium. Cell culture media were replaced with 1.6 mL of peptide-containing medium, and the cells were incubated with peptide for one hour at 37C. Medium was removed and cells were washed three times with PBS. Two mL of 2% formaldehyde in PBS was added to each well, and plates were kept on ice for 15 minutes. Cells were washed with cold PBS three times and rinsed with distilled water. Coverslips were mounted with DAPI containing media and viewed with an Olympus BX51 fluorescent microscope and DP70 digital camera with excitation and emission wavelengths of 490 and 520 nm."}, "[2]": {"test_system": "DU-145 (prostate cancer)", "test": "Cell internalization of fluorescein labeled peptide (fluorescent microscopy)", "type": "cell-based", "conditions": "prostate cancer DU-145; 25 μM peptide, one hour at 37C", "experimental": "as §1"}, "[3]": {"test_system": "CCD-1070Sk (fibroblasts)", "test": "Cell internalization of fluorescein labeled peptide (fluorescent microscopy)", "type": "cell-based", "conditions": "fibroblasts CCD-1070Sk; 25 μM peptide, one hour at 37C", "experimental": "as §1"}, "[4]": {"target": "BSA (Bos taurus, UniProt P02769)", "sequence (P02769 25-607)": "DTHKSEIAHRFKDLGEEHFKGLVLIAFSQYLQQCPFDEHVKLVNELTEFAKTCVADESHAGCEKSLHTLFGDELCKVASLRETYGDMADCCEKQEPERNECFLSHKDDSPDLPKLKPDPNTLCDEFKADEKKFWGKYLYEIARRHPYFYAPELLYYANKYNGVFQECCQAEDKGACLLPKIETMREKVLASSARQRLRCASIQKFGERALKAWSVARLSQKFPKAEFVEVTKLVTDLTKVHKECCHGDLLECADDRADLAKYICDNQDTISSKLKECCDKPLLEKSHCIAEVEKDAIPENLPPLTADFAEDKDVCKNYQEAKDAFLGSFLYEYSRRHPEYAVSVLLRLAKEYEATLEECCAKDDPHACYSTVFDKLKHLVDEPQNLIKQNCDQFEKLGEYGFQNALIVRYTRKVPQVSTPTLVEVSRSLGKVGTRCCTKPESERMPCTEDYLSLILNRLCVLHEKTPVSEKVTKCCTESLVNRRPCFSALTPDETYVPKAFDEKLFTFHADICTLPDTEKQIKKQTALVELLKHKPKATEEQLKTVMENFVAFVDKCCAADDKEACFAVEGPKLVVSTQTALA", "test": "Binding competition control: 99m-Tc labeled PanC on BSA coated wells", "conditions": "various concentrations of epitope, constant 99m-Tc labeled PanC, 1 hour at room temperature"}, "[5]": {"target": "T1, Hsp70 (Homo sapiens, UniProt P0DMV8)", "T1 construct": "purchased BioVision, Mountain View, Calif", "T1 sequence (P0DMV8 whole entry)": "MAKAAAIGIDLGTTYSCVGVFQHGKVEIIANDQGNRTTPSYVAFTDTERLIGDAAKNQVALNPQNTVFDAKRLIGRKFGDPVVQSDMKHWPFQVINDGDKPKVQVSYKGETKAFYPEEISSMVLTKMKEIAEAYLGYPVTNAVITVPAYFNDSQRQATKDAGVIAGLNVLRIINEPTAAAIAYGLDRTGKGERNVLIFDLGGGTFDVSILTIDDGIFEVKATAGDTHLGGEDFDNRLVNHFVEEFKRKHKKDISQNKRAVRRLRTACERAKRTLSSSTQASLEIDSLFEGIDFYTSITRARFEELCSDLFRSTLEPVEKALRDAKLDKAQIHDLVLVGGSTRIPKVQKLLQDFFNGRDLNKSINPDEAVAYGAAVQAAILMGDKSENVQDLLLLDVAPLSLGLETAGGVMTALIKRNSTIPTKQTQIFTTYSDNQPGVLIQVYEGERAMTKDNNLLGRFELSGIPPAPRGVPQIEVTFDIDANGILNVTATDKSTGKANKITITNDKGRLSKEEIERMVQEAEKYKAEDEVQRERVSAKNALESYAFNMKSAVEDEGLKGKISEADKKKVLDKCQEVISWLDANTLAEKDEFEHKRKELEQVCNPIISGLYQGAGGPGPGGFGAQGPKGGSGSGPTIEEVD", "test": "Binding competition between epitope of Hsc71 and Hsp70 for 99m-Tc labeled PanC", "conditions": "various concentrations of epitope, constant 99m-Tc labeled PanC, 1 hour at room temperature"}, "[6]": {"test_system": "lung cancer (NCI-H460)"}, "[7]": {"test_system": "prostate cancer (DU-145)"}, "[8]": {"target": "B2", "test": "competition: epitope peptide at various concentrations against Hsp70-coated wells for 99mTc-PanC; competitor Hsp70", "experimental": "A 96 well plate was prepared by coating each well with Hsp70 (BioVision, Mountain View, Calif.) or BSA (control) by adding 0.5 μg/well in 100 µL of PBS and incubating overnight at 4C. The next day, each well was washed 3× with PBS. […] At the end of incubation, each well was washed 3× with PBS."}, "[9]": {"target": "B1", "test": "99mTc-PanC (20 nM) with 100 uM biotinylated epitope and unlabeled PanC, Neutravidin bead pull-down, gamma counting"}},
  "note": "“Also recorded” adds a separate entry of the source. Where no end group is shown, it is not given here. The star is where a group is joined. Biotin = O=C1N[C@H]2[C@H](CS[C@H]2CCCCC(=O)*)N1",
  "data": [
    {"molecule": "DYWDTSWPLLLFGGGSK (SEQ ID NO:12; PanF) (Flourescein)-amide (DYWDTSWPLLLFGGGSK-NH2; also: fluorescein label, site not given here)", "values": [
      {"measurement": "cellular uptake (internalization) by fluorescent microscopic visualization", "setting": "[1]", "result": "significant cellular uptake; also recorded: Significant internalization"},
      {"measurement": "cellular uptake (internalization) by fluorescent microscopic visualization", "setting": "[2]", "result": "significant cellular uptake; also recorded: Significant internalization"},
      {"measurement": "cellular uptake (internalization) by fluorescent microscopic visualization", "setting": "[3]", "result": "significant uptake wasn't seen; also recorded: but not fibroblasts"}
    ]},
    {"molecule": "GIPPAPRGVPQIEVTF (not fully specified (N-terminus)) [synthetic epitope of Hsc71, Conserved region, amino acids 463-478 of Hsc71]", "values": [
      {"measurement": "suppression of PanC binding to albumin (BSA control) by the epitope", "setting": "[4]", "result": "suppressed binding of PanC to albumin approximately equally at all concentrations"},
      {"measurement": "suppression of PanC binding to albumin (BSA control) by the epitope", "setting": "[4]; listed as Hsc71 epitope", "result": "suppresses binding of PanC to BSA approximately equally at all concentrations"},
      {"measurement": "suppression of PanC binding to Hsp70 by the epitope", "setting": "[5]", "result": "suppressed binding of PanC to Hsp70 in a concentration dependent manner"},
      {"measurement": "suppression of PanC binding to Hsp70 by the epitope", "setting": "[5]; listed as Hsc71 epitope", "result": "interferes with PanC binding to Hsp70 in a concentration dependent manner"}
    ]},
    {"molecule": "DYWDTSWPLLLFGGGS(KFAKFAK)3 [PanL]", "values": [
      {"measurement": "cell death (percent cytotoxicity)", "setting": "[6]", "result": "dose dependent increase in cell death"},
      {"measurement": "cell death (percent cytotoxicity)", "setting": "[7]", "result": "dose dependent increase in cell death"}
    ]},
    {"molecule": "B1", "values": [
      {"measurement": "binding result", "setting": "[8]", "result": "binds"}
    ]},
    {"molecule": "B2", "values": [
      {"measurement": "labeled/unlabeled PanC ratio above which binding saturates", "setting": "[9]", "result": "> 0.1", "unit": "%"}
    ]}
  ]
}
